Results on 2 variants are retold here after paper PMC10899256 (2024).

B1: LKB1 LFa peptide WT [human] / purified TBC1D23 PH domain (545–684) [human] (parent complex)
chain 1: GADEDEDLFDIEDDIIYTQD
chain 2: YDTDEIDSSSMSDDDRKEVVNIQTWINKPDVKHHFPCKEVKESGHMFPSHLLVTATHMYCLREIVSRKGLAYIQSRQALNSVVKITSKKKHPELITFKYGNSSASGIEILAIERYLIPNAGDATKAIKQQIMKVLDALES

The variants in the experiment derive from B1. Briefly: ITC; read off a plot. For orientation: ITC needs no label: the signal is the heat of the interaction.
Take chain 1 F9A: the Ka was ~5 10^4 M^-1.
For chain 1 F9L, the Ka was ~4.6 10^4 M^-1.
